We go through 1 protein from paper PMC12221286, “Endogenous formation of phosphatidylhomoserine in Escherichia coli through phosphatidylserine synthase” (The Journal of Biological Chemistry, 2025).

Substrate in the data set: N[C@@H](CCO)C(=O)O
The data set can be described thus: purified protein. The following applies: 0.3 mM 18:1/18:1 CDP-DAG, 10 mM MgCl2, 0.1 M KCl, 2.4 mM Triton X-100, pH 7.5, 25 °C, apparent constants. The class given is biochemical, Escherichia coli.

B1: EcPssA (E. coli phosphatidylserine synthase A, PssA) (Escherichia coli K-12) (protein)
chain: MLSKFKRNKHQQHLAQLPKISQSVDDVDFFYAPADFRETLLEKIASAKQRICIVALYLEQDDGGKGILNALYEAKRQRPELDVRVLVDWHRAQRGRIGAAASNTNADWYCRMAQENPGVDVPVYGVPINTREALGVLHFKGFIIDDSVLYSGASLNDVYLHQHDKYRYDRYHLIRNRKMSDIMFEWVTQNIMNGRGVNRLDDVNRPKSPEIKNDIRLFRQELRDAAYHFQGDADNDQLSVTPLVGLGKSSLLNKTIFHLMPCAEQKLTICTPYFNLPAILVRNIIQLLREGKKVEIIVGDKTANDFYIPEDEPFKIIGALPYLYEINLRRFLSRLQYYVNTDQLVVRLWKDDDNTYHLKGMWVDDKWMLITGNNLNPRAWRLDLENAILIHDPQLELAPQREKELELIREHTTIVKHYRDLQSIADYPVKVRKLIRRLRRIRIDRLISRIL
notes: purified EcPssA in Tris/NaCl/glycerol/octyl glucoside
For orientation: Km means the concentration of substrate that gives half-maximal velocity. In general, kcat refers to the maximal rate divided by the concentration of active sites. Take B1: the Km is 4.6 ± 0.02 mM and the kcat was determined as 2.86 ± 0.04 s⁻¹.
